Experimental data: patent US20140128320A1 (TRUSTEES OF COLUMBIA UNIVERSITY IN THE CITY OF NEW YORK, published 2014)

Biological target: T1, insulin receptor (InsR) expressed in ROS17/2.8 osteoblast cells (rat (by the cell line;  for …, UniProt P15127 27-1383, limits assumed)
T1 construct: The species is inferred from the cell line only; also called insulin receptor in ROS cells
Assay: GST pull-down (substrate trapping) from ROS17/2.8 cell lysate, western blot
Experimental: Recombinant proteins bound to Sepharose beads for 1 hour at 4° C. (insulin receptor trapping) or for 2 h at 4° C. […] Precipitates were collected, washed four times with lysis buffer and resolved on SDS-PAGE, followed by western blotting. Insulin receptor (InsR) was detected using rabbit anti-insulin receptor antibodies (Santa-Cruz, C-19) and GST was detected by mouse anti-GST antibodies (Santa-Cruz).

T1 sequence (P15127 27-1383 limits assumed): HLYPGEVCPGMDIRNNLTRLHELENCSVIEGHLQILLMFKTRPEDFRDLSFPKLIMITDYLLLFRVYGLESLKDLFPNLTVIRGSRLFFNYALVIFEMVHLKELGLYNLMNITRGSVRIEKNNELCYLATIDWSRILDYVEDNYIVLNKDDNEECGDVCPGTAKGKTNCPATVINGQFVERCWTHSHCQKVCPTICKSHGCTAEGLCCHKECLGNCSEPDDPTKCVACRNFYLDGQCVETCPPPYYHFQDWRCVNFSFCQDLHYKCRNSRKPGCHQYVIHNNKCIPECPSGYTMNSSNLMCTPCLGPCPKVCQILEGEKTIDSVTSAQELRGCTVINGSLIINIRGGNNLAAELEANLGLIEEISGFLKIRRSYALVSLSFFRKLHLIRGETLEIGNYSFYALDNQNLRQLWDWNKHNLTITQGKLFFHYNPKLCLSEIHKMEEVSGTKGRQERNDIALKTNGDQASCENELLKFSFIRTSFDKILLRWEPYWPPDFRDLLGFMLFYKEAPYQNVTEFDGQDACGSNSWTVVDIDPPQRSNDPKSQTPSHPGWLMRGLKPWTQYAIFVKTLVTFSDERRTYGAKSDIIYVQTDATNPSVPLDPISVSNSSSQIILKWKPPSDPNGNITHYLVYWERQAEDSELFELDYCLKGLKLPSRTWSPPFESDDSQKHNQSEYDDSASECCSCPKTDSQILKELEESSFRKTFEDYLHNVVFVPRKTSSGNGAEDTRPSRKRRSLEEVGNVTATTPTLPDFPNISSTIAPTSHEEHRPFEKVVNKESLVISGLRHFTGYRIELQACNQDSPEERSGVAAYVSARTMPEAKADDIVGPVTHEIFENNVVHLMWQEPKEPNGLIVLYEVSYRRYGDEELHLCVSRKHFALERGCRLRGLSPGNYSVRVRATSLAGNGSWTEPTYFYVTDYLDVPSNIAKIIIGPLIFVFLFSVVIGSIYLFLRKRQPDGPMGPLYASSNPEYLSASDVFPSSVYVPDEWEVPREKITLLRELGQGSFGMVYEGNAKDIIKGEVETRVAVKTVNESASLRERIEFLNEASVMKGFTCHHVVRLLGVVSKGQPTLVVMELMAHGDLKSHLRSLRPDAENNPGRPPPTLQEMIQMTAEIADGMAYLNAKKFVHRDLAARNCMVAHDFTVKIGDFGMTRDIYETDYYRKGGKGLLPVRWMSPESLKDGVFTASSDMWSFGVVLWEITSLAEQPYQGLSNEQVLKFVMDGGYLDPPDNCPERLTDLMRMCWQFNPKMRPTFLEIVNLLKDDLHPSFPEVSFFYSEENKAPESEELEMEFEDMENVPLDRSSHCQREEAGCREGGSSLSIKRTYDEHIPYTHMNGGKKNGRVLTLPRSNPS

B1: GST-PTP^WT (a fusion of GST with the phosphatase domain I of OST-PTP, rat a.a. 1116-1412) (enzyme)
chain: KELMPYNLWRTHRPIPIHSFRQSYEAKSAHAHQTFFQEFEELKEVGKDQPRLEAEHPDNIIKNRYPHVLPYDHSRVRLTQLPGEPHSDYINANFIPGYSHTQEIIATQGPLKKTLEDFWRLVWEQQVHVIIMLTVGMENGRVLCEHYWPANSTPVTHGHITIHLLAEEPEDEWTRREFQLQHGTEQKQRRVKQLQFTTWPDHSVPEAPSSLLAFVELVQEQVQATQGKGPILVHCSAGVGRTGTFVALLRLLRQLEEEKVADVFNTVYILRLHRPLMIQTLSQYIFLHSCLLNKILE
notes: also called WT OST-PTP; not shown: Glutathione S-transferase (GST) encoded by the vector pGEX 4T3 (Amersham)
- binding result: no binding
